In patent US7658917 (PRAECIS PHARMACEUTICALS, dated 2010):
Numbered stars: 1 amine (or outer) side, 2 acyl side, 3 side chain; on linkers, the order of the positions; unused ones are H or OH. Square brackets hold non-standard residues; d marks the D form. Primed or numbered codes have the meaning given here. * marks the point of attachment. Aic′ = 3-(O-aminoethyl-iso)-cholyl, C[C@H](CCC(=O)*)[C@H]1CC[C@H]2[C@@H]3[C@H](O)C[C@@H]4C[C@@H](OCCN)CC[C@]4(C)[C@H]3C[C@H](O)[C@]12C; Cholyl = C[C@H](CCC(=O)*)[C@H]1CC[C@H]2[C@@H]3[C@H](O)C[C@@H]4C[C@H](O)CC[C@]4(C)[C@H]3C[C@H](O)[C@]12C; Adp = aminoethyldibenzofuranylpropanoic acid, O=C(CCc1cccc2c1oc1c(CCN[*:1])cccc12)[*:2]; Tyr(3-I) = N[C@@H](Cc1ccc(O)c(I)c1)C(=O)O; Aic″ = 3-(O-aminoethyl-iso)-cholyl; NANA = N-acetyl neuraminyl; βAla = NCCC(=O)O

B1: CA-LVF-oh (peptide)
peptide: Cholyl-Leu-Val-Phe-OH
SMILES: CC(C)C[C@H](NC(=O)CC[C@@H](C)[C@H]1CC[C@H]2[C@@H]3[C@H](O)C[C@@H]4C[C@H](O)CC[C@]4(C)[C@H]3C[C@H](O)[C@]12C)C(=O)N[C@H](C(=O)N[C@@H](Cc1ccccc1)C(=O)O)C(C)C
B2: CA-LVFFK-oh (peptide)
peptide: Cholyl-LVFFK-OH
SMILES: CC(C)C[C@H](NC(=O)CC[C@@H](C)[C@H]1CC[C@H]2[C@@H]3[C@H](O)C[C@@H]4C[C@H](O)CC[C@]4(C)[C@H]3C[C@H](O)[C@]12C)C(=O)N[C@H](C(=O)N[C@@H](Cc1ccccc1)C(=O)N[C@@H](Cc1ccccc1)C(=O)N[C@@H](CCCCN)C(=O)O)C(C)C
B3: CA-VFF-oh (peptide)
peptide: Cholyl-Val-Phe-Phe-OH
SMILES: CC(C)[C@H](NC(=O)CC[C@@H](C)[C@H]1CC[C@H]2[C@@H]3[C@H](O)C[C@@H]4C[C@H](O)CC[C@]4(C)[C@H]3C[C@H](O)[C@]12C)C(=O)N[C@@H](Cc1ccccc1)C(=O)N[C@@H](Cc1ccccc1)C(=O)O
B4: CA-FKFVL-oh (peptide)
peptide: Cholyl-FKFVL-OH
SMILES: CC(C)C[C@H](NC(=O)[C@@H](NC(=O)[C@H](Cc1ccccc1)NC(=O)[C@H](CCCCN)NC(=O)[C@H](Cc1ccccc1)NC(=O)CC[C@@H](C)[C@H]1CC[C@H]2[C@@H]3[C@H](O)C[C@@H]4C[C@H](O)CC[C@]4(C)[C@H]3C[C@H](O)[C@]12C)C(C)C)C(=O)O
B5: CA-LVFFAE-oh (peptide)
peptide: Cholyl-LVFFAE-OH
SMILES: CC(C)C[C@H](NC(=O)CC[C@@H](C)[C@H]1CC[C@H]2[C@@H]3[C@H](O)C[C@@H]4C[C@H](O)CC[C@]4(C)[C@H]3C[C@H](O)[C@]12C)C(=O)N[C@H](C(=O)N[C@@H](Cc1ccccc1)C(=O)N[C@@H](Cc1ccccc1)C(=O)N[C@@H](C)C(=O)N[C@@H](CCC(=O)O)C(=O)O)C(C)C
B6: h-DDIIL-(Adp)-VFF-oh (peptide)
peptide: H-DDIIL[Adp]VFF-OH
SMILES: CC[C@H](C)[C@H](NC(=O)[C@H](CC(=O)O)NC(=O)[C@@H](N)CC(=O)O)C(=O)N[C@H](C(=O)N[C@@H](CC(C)C)C(=O)NCCc1cccc2c1oc1c(CCC(=O)N[C@H](C(=O)N[C@@H](Cc3ccccc3)C(=O)N[C@@H](Cc3ccccc3)C(=O)O)C(C)C)cccc12)[C@@H](C)CC
B7: CA-KLVFF(βA)-oh (peptide)
peptide: Cholyl-KLVFF[βAla]-OH
SMILES: CC(C)C[C@H](NC(=O)[C@H](CCCCN)NC(=O)CC[C@@H](C)[C@H]1CC[C@H]2[C@@H]3[C@H](O)C[C@@H]4C[C@H](O)CC[C@]4(C)[C@H]3C[C@H](O)[C@]12C)C(=O)N[C@H](C(=O)N[C@@H](Cc1ccccc1)C(=O)N[C@@H](Cc1ccccc1)C(=O)NCCC(=O)O)C(C)C
B8: CA-KTVFF-oh (peptide)
peptide: Cholyl-KTVFF-OH
SMILES: CC(C)[C@H](NC(=O)[C@@H](NC(=O)[C@H](CCCCN)NC(=O)CC[C@@H](C)[C@H]1CC[C@H]2[C@@H]3[C@H](O)C[C@@H]4C[C@H](O)CC[C@]4(C)[C@H]3C[C@H](O)[C@]12C)[C@@H](C)O)C(=O)N[C@@H](Cc1ccccc1)C(=O)N[C@@H](Cc1ccccc1)C(=O)O
B9: CA-LAFFA-oh (peptide)
peptide: Cholyl-LAFFA-OH
SMILES: CC(C)C[C@H](NC(=O)CC[C@@H](C)[C@H]1CC[C@H]2[C@@H]3[C@H](O)C[C@@H]4C[C@H](O)CC[C@]4(C)[C@H]3C[C@H](O)[C@]12C)C(=O)N[C@@H](C)C(=O)N[C@@H](Cc1ccccc1)C(=O)N[C@@H](Cc1ccccc1)C(=O)N[C@@H](C)C(=O)O
B10: CA-FFVLA-oh (peptide)
peptide: Cholyl-FFVLA-OH
SMILES: CC(C)C[C@H](NC(=O)[C@@H](NC(=O)[C@H](Cc1ccccc1)NC(=O)[C@H](Cc1ccccc1)NC(=O)CC[C@@H](C)[C@H]1CC[C@H]2[C@@H]3[C@H](O)C[C@@H]4C[C@H](O)CC[C@]4(C)[C@H]3C[C@H](O)[C@]12C)C(C)C)C(=O)N[C@@H](C)C(=O)O
B11: CA-VFFA-oh (peptide)
peptide: Cholyl-VFFA-OH
SMILES: CC(C)[C@H](NC(=O)CC[C@@H](C)[C@H]1CC[C@H]2[C@@H]3[C@H](O)C[C@@H]4C[C@H](O)CC[C@]4(C)[C@H]3C[C@H](O)[C@]12C)C(=O)N[C@@H](Cc1ccccc1)C(=O)N[C@@H](Cc1ccccc1)C(=O)N[C@@H](C)C(=O)O
B12: h-(Aic)-LVFFA-oh (peptide)
peptide: H-[Aic′]LVFFA-OH
SMILES: CC(C)C[C@H](NC(=O)CC[C@@H](C)[C@H]1CC[C@H]2[C@@H]3[C@H](O)C[C@@H]4C[C@@H](OCCN)CC[C@]4(C)[C@H]3C[C@H](O)[C@]12C)C(=O)N[C@H](C(=O)N[C@@H](Cc1ccccc1)C(=O)N[C@@H](Cc1ccccc1)C(=O)N[C@@H](C)C(=O)O)C(C)C
B13: CA-AVFFA-oh (peptide)
peptide: Cholyl-AVFFA-OH
SMILES: CC(C)[C@H](NC(=O)[C@H](C)NC(=O)CC[C@@H](C)[C@H]1CC[C@H]2[C@@H]3[C@H](O)C[C@@H]4C[C@H](O)CC[C@]4(C)[C@H]3C[C@H](O)[C@]12C)C(=O)N[C@@H](Cc1ccccc1)C(=O)N[C@@H](Cc1ccccc1)C(=O)N[C@@H](C)C(=O)O
B14: CA-FFA-oh (peptide)
peptide: Cholyl-Phe-Phe-Ala-OH
SMILES: C[C@H](NC(=O)[C@H](Cc1ccccc1)NC(=O)[C@H](Cc1ccccc1)NC(=O)CC[C@@H](C)[C@H]1CC[C@H]2[C@@H]3[C@H](O)C[C@@H]4C[C@H](O)CC[C@]4(C)[C@H]3C[C@H](O)[C@]12C)C(=O)O
B15: CA-LVAFA-oh (peptide)
peptide: Cholyl-LVAFA-OH
SMILES: CC(C)C[C@H](NC(=O)CC[C@@H](C)[C@H]1CC[C@H]2[C@@H]3[C@H](O)C[C@@H]4C[C@H](O)CC[C@]4(C)[C@H]3C[C@H](O)[C@]12C)C(=O)N[C@H](C(=O)N[C@@H](C)C(=O)N[C@@H](Cc1ccccc1)C(=O)N[C@@H](C)C(=O)O)C(C)C

Target: natural β-amyloid peptide β-AP1-40 (human)
Experiment: cell-based or functional assay

Sequence of natural β-amyloid peptide β-AP1-40 (human) (peptide, as listed by the source): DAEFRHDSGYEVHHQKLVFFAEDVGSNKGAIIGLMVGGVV

Binder | % Iext'n; seeded extension assay; 25 mole % | % Inucl'n; nucleation assay; 100 mole % | ΔLag; nucleation assay; 100 mole % | % Inucl'n; nucleation assay; 33 mole % | ΔLag; nucleation assay; 33 mole %
B1 | 0% | 1% | 1.3 ratio | – | –
Cholyl-HQKLVFF-NH2 [CA-HQKLVFF-nh2] | – | – | – | 5% | 1.1 ratio
B2 | 85% | – | – | 100% | > 5 ratio
Cholyl-LVFFA-OMe [CA-LVFFA-o-methyl] | 0% | – | – | – | –
B3 | 0% | 55% | 1.8 ratio | – | –
B4 | 37% | 45% | 0.8 ratio | – | –
B5 | 16% | 55% | 1.4 ratio | – | –
B6 | 0% | 14% | 0.4 ratio | – | –
H-LVFFA-OH [h-LVFFA-oh] | 11% | 15% | 1 ratio | – | –
B7 | 80% | 76% | 2.5 ratio | – | –
B8 | 21% | 18% | 1.2 ratio | – | –
{NANA}-KLVFF-OH [NANA-KLVFF-oh] | 8% | 16% | 0.9 ratio | – | –
B9 | 66% | 47% | 1.5 ratio | – | –
H-LVFFA-NH2 [h-LVFFA-nh2] | 70% | 11% | 1.3 ratio | – | –
B10 | 89% | 100% | > 5 ratio | – | –
Cholyl-LV[Tyr(3-I)]FA-OH [CA-LV(IY)FA-oh] | 71% | 100% | > 5 ratio | – | –
B11 | 10% | 76% | 2 ratio | – | –
Cholyl-LVFFA-NH2 [CA-LVFFA-nh2] | 91% | -200% | 1 ratio | – | –
B12 | 87% | – | – | 100% | > 5 ratio
H-LVFFA[Aic″]-OH [h-LVFFA-(Aic)-oh] | 3% | 46% | 3.5 ratio | – | –
H-KLVFF-NH2 [h-KLVFF-nh2] | 39% | -9% | 1.3 ratio | – | –
B13 | 44% | 68% | 1.4 ratio | – | –
B14 | 6% | 51% | 1 ratio | – | –
Cholyl-LVFF-OH [CA-LVFF-oh] | 51% | – | – | 72% | 1.8 ratio
B15 | 0% | 25% | 2.7 ratio | – | –
{NANA}-HQKLVFF-NH2 [NANA-HQKLVFF-nh2] | – | -15% | 1.5 ratio | – | –
